The text below walks through data of article PMC10397247.

Holding throughout (experiment): two-hybrid library CCNG1;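 note: natural log of median RNA to DNA barcode read ratio; higher means stronger binding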
One assay concerns the target T1, 4H1710-bN.
T1 chain: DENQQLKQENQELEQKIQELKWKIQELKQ

In the next assay the target is T2, 4H1338-bN.
T2 chain: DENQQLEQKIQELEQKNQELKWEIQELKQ

Another assay deals with T3, 4H1899-bN.
T3 chain: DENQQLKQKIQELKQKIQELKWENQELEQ

A further assay deals with T4, 4H1985-bN.
T4 chain: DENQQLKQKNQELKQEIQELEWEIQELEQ

The next assay concerns the target T5, 4H570-bN.
T5 chain: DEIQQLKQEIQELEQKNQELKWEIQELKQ

The target of the next assay is T6, 4H3628-bN.
T6 chain: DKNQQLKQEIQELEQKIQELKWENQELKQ

The target in another assay is T7, 4H1373-bN.
T7 chain: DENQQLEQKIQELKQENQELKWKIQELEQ

A further assay deals with T8, 4H3817-bN.
T8 chain: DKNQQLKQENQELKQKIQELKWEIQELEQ

For the next assay, the target named is T9, 4H1449-bN.
T9 chain: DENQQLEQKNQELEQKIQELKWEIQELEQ

The target of a further assay is T10, 4H3858-bN.
T10 chain: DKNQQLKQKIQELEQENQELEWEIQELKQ

Another assay has as its target T11, 4H3974-bN.
T11 chain: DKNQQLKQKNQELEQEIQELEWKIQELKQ

The target of the next assay is T12, 4H3613-bN.
T12 chain: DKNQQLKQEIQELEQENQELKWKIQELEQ

The target of a further assay is T13, 4H850-bN.
T13 chain: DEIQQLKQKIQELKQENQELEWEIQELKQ

The target of a further assay is T14, 4H2702-bA.
T14 chain: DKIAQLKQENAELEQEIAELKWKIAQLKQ

A further assay concerns the target T15, 4H1348-bN.
T15 chain: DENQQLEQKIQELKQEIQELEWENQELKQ

For another assay, the target named is T16, 4H1544-bN.
T16 chain: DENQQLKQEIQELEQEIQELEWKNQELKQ

Take DENQQLEQKIQELEQKNQELKWEIQELKQ [4H1338-bN]: the interaction score is -0.345 with 4H1710-bN; 0.0248 with 4H1338-bN; -2.73 with 4H1899-bN; -0.88 with 4H1985-bN; -0.567 with 4H570-bN; -0.229 with 4H3628-bN. For the same molecule, the interaction score with 4H1373-bN was -1.16; with 4H3817-bN it was -0.326; with 4H1449-bN, -0.847; with 4H3858-bN, 1.37; with 4H3974-bN, -0.674; in the assay with 4H3613-bN, -0.479. Also, the interaction score with 4H850-bN is 0.8; in the assay with 4H2702-bA, -2.23; with 4H1348-bN it was -1.29; with 4H1544-bN, 0.114.
